The values below are quoted from earlier work in publication PMC2948943.

As usually defined, the Kd is the free concentration of one partner at which half of the binding sites on the other are occupied at equilibrium, for simple one-to-one binding.

The target of this data set is UmuD (Escherichia coli) (UniProt P0AG11).

A value given as a limit tells only on which side of the number the result lay.

UmuD, sequence (P0AG11 25-139): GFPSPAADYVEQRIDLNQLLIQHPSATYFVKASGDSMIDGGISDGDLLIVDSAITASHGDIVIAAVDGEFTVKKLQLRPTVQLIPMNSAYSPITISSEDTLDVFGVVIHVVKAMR

On to UmuD (from UniProt P0AG11), for which the Kd is less than 0.01 nM.
